The nature of the data set: Radiochemical purity (RCP) of dose vials over time after formulation, radio-HPLC. It counts as physicochemical. Conditions: 10 Ci batches, with and without SPE purification (both formulations); post-formulation, i.e. after end of synthesis. The procedure: Two 10 Ci batches of copper Cu-64 PSMA I&T were prepared, wherein the primary difference between them was removal of the purification step. During purification, a solid phase extraction cartridge was used to purify the product by removing radiolabeling buffer and remaining ^64Cu copper chloride starting material; however, this step requires concentration of the batch activity in a small volume (i.e., <1 mL), which can encourage radiolytic damage and result in detrimental impacts to radiochemical purity (RCP). This phenomenon was observed experimentally when comparing the radiochemical purity of copper Cu-64 PSMA I&T prepared with and without purification (FIG. 2). The removal of the purification step yielded a product with a higher RCP of 98.9% (FIG. 2B) versus 92.4% (FIG. 2A). The difference between the two purity profiles was that the primary radiolytic impurity (tR=16.8′-17.2′) was largely absent in the non-purified product. In both formulations, the RCP of individual dose vials prepared thereof was maintained over a period of 51 h post-formulation (i.e., 51 h after end of synthesis).

Turning to “^64Cu-(3S, 7S, 26R, 29R, 32R, 37R)-29-benzyl-32(4-hydroxy-3-iodobenzyl)-5, 13, 20, 28, 31, 34-hexaoxo-37-(4,7,10-tris(carboxymethyl)-1, 4, 7, 10-tetraazacyclododecan-1-yl)-4, 6, 12, 21, 27, 30, 33-heptaazaheptatriacontane-1, 3, 7, 26, 37-pentacarboxylic acid [Cu-64 PSMA I&T]”, the “period over which RCP of individual dose vials was maintained” value stood at 51 h.

These data come from patent US20240024519A1, “RADIOPHARMACEUTICAL COMPOSITIONS OF COPPER FOR TARGETED MOLECULAR IMAGING” (Curium US LLC, priority 2022, published 2024).
